Test results: patent US20040171585

Biological target: T1, HNF-4α (UniProt P41235)
T1 sequence: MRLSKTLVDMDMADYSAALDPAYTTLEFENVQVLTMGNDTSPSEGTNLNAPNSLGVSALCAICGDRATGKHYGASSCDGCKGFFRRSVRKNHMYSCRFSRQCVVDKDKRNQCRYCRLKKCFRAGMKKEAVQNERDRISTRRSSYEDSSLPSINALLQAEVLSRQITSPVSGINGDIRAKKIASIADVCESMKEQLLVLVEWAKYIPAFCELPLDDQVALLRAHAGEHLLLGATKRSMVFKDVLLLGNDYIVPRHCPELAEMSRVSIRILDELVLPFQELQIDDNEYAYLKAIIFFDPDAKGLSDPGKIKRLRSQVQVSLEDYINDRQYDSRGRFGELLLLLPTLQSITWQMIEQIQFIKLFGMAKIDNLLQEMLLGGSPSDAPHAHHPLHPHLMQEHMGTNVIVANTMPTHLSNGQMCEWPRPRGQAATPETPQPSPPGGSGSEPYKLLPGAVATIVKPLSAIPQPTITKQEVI
Assay: cell_activity
Settings: CAT reporter with TK promoter and one to three C3P copies, COS-7, no added fatty acids

## GCAGGTGACCTTTGCCCAGCGCC (double strand) [C3P element of apo CIII promoter (-87/-66)]
  activity (fold activation): 7
